Patent US10000775B2, “Biosynthesis of 1-undecene and related terminal olefins” (The Regents of the University of California, priority 2013, dated 2018)

What was measured:
[1] = test system: E. coli; experiment: 1-undecene production in E. coli overexpressing PFL_4321, PFL_0203 or homologs, with or without UcFatB2; format: cell-based; conditions: E. coli BL21 Star (pZR60), headspace GC-MS
Experimental: E. coli, P. aeruginosa PAO-1, and P. aeruginosa PA14 strains were grown in 5 mL of LB medium overnight at 37° C., while all the other Pseudomonas and Acinetobacter strains were grown at 30° C. […] The culture was shaken in a sealed 20 mL headspace vial (Agilent certified) containing a stir bar at 30° C. for 36 hr. After incubation, an SPME fiber (30 μm polydimethylsiloxane, Supelco, Sigma-Aldrich Group, Bellefonte, Pa.) was manually inserted into the headspace vial and incubated at 25° C. for 12.5 min. GC-MS analysis was conducted on a Varian CP-3800 instrument equipped with a Varian 320-MS. […] The signals of the 1-alkenes were identified and quantified by comparison with authentic samples (MP Biomedicals), which were diluted in ethyl acetate, added to 5 mL of culture medium in a sealed headspace vial, and sampled by the same SPME-GCMS method as described above.
[…] 1-Undecene production was detected by using the SPME-GCMS method. […]
To investigate whether PFL_0203 was facilitating the production of 1-undecene, this gene was individually expressed in E. coli and the cells were monitored for 1-undecene production. […]

[2] = Stoichiometry determination in single-turnover reactions; format: biochemical
Experimental: FIG. 27 illustrates the requirement for O2 for PFL_4321 activity.
To investigate 1-undecene formation and the O2 consumption, 0.5 mL of reaction mixture was prepared to contain 50 mM MES buffer (pH 6.2), 300 mM NaCl, 45 μM PFL_4321-Fe(II), and 500 μM LA (25 mM stock solution of LA sodium salt was prepared in 2% tergitol; tergitol is not required for <150 μM of LA). MES buffer (pH 6.2) was selected to reach slightly higher enzymatic activity than other buffers such as Bis-Tris (pH 6.0-7.0), Tris (pH 7.5-8.5), MOPS (pH 6.5-7.5), and HEPES (pH 6.8-8.0). The reaction was performed in a sealed headspace vial, initiated by adding PFL_4321 at room temperature and quenched by injecting equal volume of 5 M NaOH. 1-undecene production was analyzed and quantified using the SPME-GCMS method. The correlations of total 1-undecene produced and enzyme used were further determined varying PFL_4321 concentrations (40-1000 μM), and similar single turnover reactions were obtained in all assays (˜0.7-0.8 molecule of 1-undecene per molecule of PFL_4321-Fe(II)). O2 concentration was measured in a sealed reaction chamber (0.5 mL) with an integrated oxygen electrode unit (Oxygraph Plus System, Hansatech Instruments, UK). For the control group, LA was omitted from the reaction mixture.

[3] = Initial production rate determination under single turnover conditions; format: biochemical; conditions: single turnover condition
Experimental: To determine the initial rates of 1-alkene production under the single turnover conditions, the O2-saturated buffer solution (50 mM MES, pH 6.2, 100 mM NaCl) was mixed with an equal volume of an O2-free solution containing 50 mM MES buffer (pH 6.2), 100 mM NaCl, 200 μM (NH4)2Fe(SO4)2, 0.2-20 μM PFL_4321, and various concentrations of substrate (2-300 μM), so that the final mixture contained 50 mM MES buffer (pH 6.2), 100 mM NaCl, 0.1-10 μM PFL_4321, 100 μM (NH4)2Fe(SO4)2, and various concentrations of substrate (1-150 μM). The reactions were carried out in sealed GC vials and quenched by injecting 1 M NaOH at 2, 4, 6, 8, 10, 20, 30, 40, 50, 60 seconds. The productions of 1-alkenes were analyzed by SPME-GCMS analysis.

[4] = measured stoichiometry, aerobic

B1: PFL_4321: protein of 261 amino acids from Pseudomonas fluorescens Pf-5; non-heme iron (II)-dependent enzyme converting medium-chain fatty acids into terminal olefins (protein, listed as Pseudomonas fluorescens)
chain: MIDTFSRTGPLMEAASYPAWTQQLIQDCSESKRRVVEHELYQRMRDNKLSAKVMRQYLIGGWPVVEQFALYMAQNLTKTRFARHPGEDMARRWLMRNIRVELNHADYWVHWSRAHGVTLEDLQAQQVPPELHALSHWCWHTSSADSLIVAIAATNYAIEGATGEWSALVCSNGIYAAAFPEEDRKRAMKWLKMHAQYDDAHPWEALEIIVTLAGLNPTKALQAELRQAICKSYDYMYLFLERCMQQEKTAVTRERLALAEG
1-undecene produced [1]: ~5 µg/mL | 1-undecene produced per molecule of PFL_4321-Fe(II) [2, 4]: approximately one | O2 consumed per molecule of PFL_4321-Fe(II) [2, 4]: approximately one | total 1-undecene produced per enzyme used ([2]; single turnover reactions, PFL_4321 40-1000 μM): 0.7-0.8 molecule of 1-undecene per molecule of PFL_4321-Fe(II) | initial rate of 1-undecene production [3]: 0.06±0.002 mol 1-undecene/(mol PFL_4321-Fe(II) second)
